Data on one molecule can be found in patent US20230266324A1 (Hoffmann-La Roche, published 2023).

This experiment has as its target T1, PD-L1 (human, UniProt Q9NZQ7 19-290).
T1 construct: whole, on cells; Endogenous PD-L1 on in vitro generated human DCs (iDCs, mDCs); also called B7-H1; B7-4
Briefly: confocal imaging of co-localization on the surface of human mDCs.

T1 sequence (Q9NZQ7 19-290): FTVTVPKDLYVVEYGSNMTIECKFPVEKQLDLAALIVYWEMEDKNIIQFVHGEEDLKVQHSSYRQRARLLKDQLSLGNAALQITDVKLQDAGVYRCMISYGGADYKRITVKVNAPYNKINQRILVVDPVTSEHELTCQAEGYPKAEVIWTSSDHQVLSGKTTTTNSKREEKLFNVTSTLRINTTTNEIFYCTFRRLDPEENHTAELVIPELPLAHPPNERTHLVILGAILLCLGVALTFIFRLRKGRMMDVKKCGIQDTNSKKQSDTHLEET

B1: CD80 (ligand, human, UniProt P33681 35-288, looked up)
chain: VIHVTKEVKEVATLSCGHNVSVEELAQTRIYWQKEKKMVLTMMSGDMNIWPEYKNRTIFDITNNLSIVILALRPSDEGTYECVVLKYEKDAFKREHLAEVTLSVKADFPTPSISDFEIPTSNIRRIICSTSGGFPEPHLSWLENGEELNAINTTVSQDPETELYAVSSKLDFNMTTNHSFMCLIKYGHLRVNQTFNWNTTKQEHFPDNLLPSWAITLISVNGIFVICCLTYCFAPRCRERRRNERLRRESVRPV
notes: whole, on cells; Endogenous CD80 on human DCs, seen by confocal imaging; also called B7-1; B7.1
Regarding B1, the binding result is listed as “binds”.
